Experimental data: the supplement of paper PMC6757056
± gives the standard deviation of the averaged measurements.

B1: library; a variant is named by its letters at N, in order (parent)
chain: GCUGUCACCGAGAAACUGUGAAGUAUAUCUUAAACCUGGGCACUUAAAAGAUAUAUGGAGUUAGUAGUGCAACCUGCUCGGUCUGAUGAGUCCNNNNNNGGACGAAACAGC

Key:
[1] = variants of: B1; experiment: FACS-Seq fitted mean relative fluorescence mCherry/BFP without ligand (log10 relative fluorescence); HEK293T; ligand: cyclic di-GMP (c-di-GMP-II aptamer); higher = higher reporter protein expression; conditions: ligand present: no
In short: (§1)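 Enriched HEK293T cells carrying, by lentivirus, an mCherry reporter with the ribozyme switch and an EF1α-BFP marker spent 48 h with or without ligand and were sorted into 6 bins by mCherry/BFP. MiSeq sequencing of PCR-amplified bin genomic DNA gave bin counts. Fluorescence was calculated as the fitted normal mean of those counts. Counts were binned on log10(mCherry/BFP), and means were scaled to five spiked-in control ribozymes.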

[2] = variants of: B1; experiment: normalized RNA/DNA level without ligand (relative to sTRSVctl = 100) (log10 (% of sTRSVctl)); HEK293T; ligand: cyclic di-GMP (c-di-GMP-II aptamer); higher = less ribozyme self-cleavage, higher mRNA level; conditions: reporter: mCherry (pCS4076), ligand present: no
Description: (§2)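 Hammerhead (sTRSV) ribozyme switch libraries with a ligand aptamer grafted on stem I and a randomized N4-6 loop II, cloned into the 3' UTR of mCherry and transiently transfected into HEK293T cells; RNA-Seq 72 h post transfection with ligand added 1 h before transfection; RNA read count / plasmid DNA read count normalized to the non-cleaving sTRSVctl (x100), log10; sequences with >100 DNA reads. FACS-Seq: lentiviral library sorted into 6 bins after 48 h ligand, log-normal fit mean of mCherry/BFP scaled to controls. Printed sequences are partial switch sequences.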

[3] = variants of: B1; experiment: FACS-Seq fitted mean relative fluorescence mCherry/BFP with ligand (log10 relative fluorescence); HEK293T; ligand: cyclic di-GMP (c-di-GMP-II aptamer); ligand concentration (+) FACS-Seq: 1 mM; higher = higher reporter protein expression; conditions: ligand present: yes
In short: as §1

[4] = variants of: B1; experiment: normalized RNA/DNA level with ligand (relative to sTRSVctl = 100) (log10 (% of sTRSVctl)); HEK293T; ligand: cyclic di-GMP (c-di-GMP-II aptamer); ligand concentration (+) RNA-Seq: 1 mM; higher = less ribozyme self-cleavage, higher mRNA level; conditions: reporter: mCherry (pCS4076), ligand present: yes
Description: as §2

| Variant | FACS-Seq fitted mean (log10) [1] | normalized RNA/DNA level without ligand (log10) [2] | FACS-Seq fitted mean (log10) [3] | normalized RNA/DNA level with ligand (log10) [4] |
| --- | --- | --- | --- | --- |
| AACUGA | -0.155 ± 0.014 | 1.54 ± 0.047 | 0.0803 ± 0.017 | 1.68 ± 0.12 |
| AACUGG | -0.198 ± 0.17 | 1.59 ± 0.049 | 0.149 ± 0.048 | 1.77 ± 0.17 |
| UAUAAA | -0.114 ± 0.051 | 1.66 ± 0.026 | 0.111 ± 0.097 | 1.79 ± 0.13 |
| AAGACA | -0.415 ± 0.14 | 1.55 ± 0.044 | -0.0423 ± 0.083 | 1.74 ± 0.1 |
| AAGACG | -0.185 ± 0.037 | 1.54 ± 0.084 | 0.133 ± 0.15 | 1.73 ± 0.097 |
| AAGUUA | -0.499 ± 0.08 | 1.529 ± 0.0062 | -0.215 ± 0.06 | 1.74 ± 0.14 |
| AACACU | 0.049 ± 0.17 | 1.68 ± 0.033 | 0.373 ± 0.032 | 1.81 ± 0.096 |
| AACACA | -0.289 ± 0.0062 | 1.54 ± 0.031 | -0.0564 ± 0.0031 | 1.75 ± 0.12 |
| AAGAGG | -0.546 ± 0.022 | 1.53 ± 0.052 | -0.313 ± 0.016 | 1.68 ± 0.15 |
| AAGAGA | -0.637 ± 0.058 | 1.33 ± 0.078 | -0.296 ± 0.066 | 1.54 ± 0.094 |
| AACUAA | -0.473 ± 0.029 | 1.51 ± 0.035 | -0.168 ± 0.1 | 1.74 ± 0.11 |
| CAUAAA | -0.673 ± 0.064 | 1.23 ± 0.14 | -0.363 ± 0.021 | 1.42 ± 0.066 |
| CAUAAU | -0.282 ± 0.056 | 1.46 ± 0.092 | -0.0129 ± 0.014 | 1.63 ± 0.072 |
| GAGAAG | -0.283 ± 0.064 | 1.71 ± 0.038 | -0.00672 ± 0.064 | 1.79 ± 0.12 |
| UACUAU | -0.131 ± 0.0047 | 1.67 ± 0.051 | 0.0664 ± 0.13 | 1.83 ± 0.15 |
| CAGAAA | -0.664 ± 0.055 | 1.15 ± 0.12 | -0.562 ± 0.02 | 1.28 ± 0.14 |
| AACCUU | -0.0813 ± 0.093 | 1.66 ± 0.039 | 0.232 ± 0.016 | 1.82 ± 0.11 |
| AACGGA | -0.525 ± 0.046 | 1.32 ± 0.14 | -0.253 ± 0.067 | 1.53 ± 0.13 |
| AAGCAA | -0.642 ± 0.0094 | 1.56 ± 0.039 | -0.454 ± 0.097 | 1.72 ± 0.062 |
| AAGCAC | -0.391 ± 0.077 | 1.678 ± 0.0034 | -0.0705 ± 0.025 | 1.82 ± 0.11 |
| CAGUUC | -0.4497 ± 0.0028 | 1.66 ± 0.038 | -0.1164 ± 0.00072 | 1.82 ± 0.097 |
| CAGUUU | -0.341 ± 0.0054 | 1.5 ± 0.0081 | -0.0345 ± 0.033 | 1.67 ± 0.12 |
| CAGUUA | -0.724 ± 0.01 | 1.28 ± 0.15 | -0.4923 ± 0.0038 | 1.42 ± 0.041 |
| UAGUGG | -0.133 ± 0.082 | 1.71 ± 0.064 | 0.162 ± 0.086 | 1.84 ± 0.069 |

| Variant | FACS-Seq fitted mean (log10) [1] | normalized RNA/DNA level without ligand (log10) [2] | FACS-Seq fitted mean (log10) [3] | normalized RNA/DNA level with ligand (log10) [4] |
| --- | --- | --- | --- | --- |
| UAGUGA | -0.51 ± 0.069 | 1.626 ± 0.0075 | -0.218 ± 0.016 | 1.77 ± 0.15 |
| GAGCGC | -0.228 ± 0.14 | 1.79 ± 0.049 | -0.101 ± 0.16 | 1.83 ± 0.082 |
| GAGCGU | -1.38 ± 0.089 | 1.814 ± 0.0041 | -1.2 ± 0.013 | 1.9 ± 0.052 |
| AAUACG | -0.6 ± 0.066 | 1.6 ± 0.058 | -0.2 ± 0.094 | 1.78 ± 0.06 |
| CACCCU | -0.383 ± 0.019 | 1.65 ± 0.082 | -0.109 ± 0.033 | 1.75 ± 0.038 |
| CAUAGU | -0.641 ± 0.058 | 1.72 ± 0.025 | -0.575 ± 0.046 | 1.85 ± 0.066 |
| UAGAAU | -0.456 ± 0.092 | 1.56 ± 0.036 | -0.193 ± 0.12 | 1.75 ± 0.13 |
| UAGAAA | -0.272 ± 0.026 | 1.58 ± 0.037 | -0.0653 ± 0.024 | 1.75 ± 0.18 |
| UACAGA | -0.198 ± 0.37 | 1.61 ± 0.052 | -0.101 ± 0.13 | 1.75 ± 0.14 |
| UAGAUG | 0.0515 ± 0.09 | 1.53 ± 0.057 | 0.322 ± 0.085 | 1.75 ± 0.089 |
| AAGCGA | -0.459 ± 0.0051 | 1.44 ± 0.1 | -0.202 ± 0.029 | 1.65 ± 0.13 |
| UAGGCU | -0.161 ± 0.14 | 1.75 ± 0.031 | 0.0436 ± 0.011 | 1.88 ± 0.11 |
| GAGUAA | -0.0125 ± 0.15 | 1.71 ± 0.027 | 0.165 ± 0.029 | 1.81 ± 0.069 |
| GAGUAG | -0.7206 ± 0.0025 | 1.84 ± 0.075 | -0.563 ± 0.061 | 1.89 ± 0.12 |
| AAGGGA | -0.6377 ± 0.005 | 1.38 ± 0.072 | -0.444 ± 0.023 | 1.5 ± 0.13 |
| AAGGGU | -0.547 ± 0.0094 | 1.53 ± 0.091 | -0.278 ± 0.052 | 1.7 ± 0.061 |
| AAGGGG | -0.499 ± 0.044 | 1.47 ± 0.087 | -0.103 ± 0.12 | 1.63 ± 0.1 |
| CACAUU | -0.323 ± 0.046 | 1.58 ± 0.025 | -0.0216 ± 0.035 | 1.7 ± 0.1 |
| CACAUA | -0.521 ± 0.032 | 1.26 ± 0.07 | -0.272 ± 0.044 | 1.52 ± 0.093 |
| GAGCAG | -0.832 ± 0.019 | 1.9 ± 0.058 | -0.596 ± 0.16 | 1.95 ± 0.13 |
| CAUCCA | -0.794 ± 0.028 | 1.44 ± 0.016 | -0.5192 ± 0.002 | 1.696 ± 0.011 |
| UACCCA | -0.0154 ± 0.2 | 1.73 ± 0.074 | 0.278 ± 0.097 | 1.86 ± 0.13 |
| UACCCU | -0.513 ± 0.0088 | 1.74 ± 0.024 | -0.201 ± 0.055 | 1.87 ± 0.09 |
| GAGACU | -0.22 ± 0.13 | 1.791 ± 0.013 | -0.00318 ± 0.073 | 1.87 ± 0.12 |

| Variant | FACS-Seq fitted mean (log10) [1] | normalized RNA/DNA level without ligand (log10) [2] | FACS-Seq fitted mean (log10) [3] | normalized RNA/DNA level with ligand (log10) [4] |
| --- | --- | --- | --- | --- |
| UACUUU | -0.1 ± 0.037 | 1.68 ± 0.019 | 0.192 ± 0.048 | 1.84 ± 0.13 |
| UACGGA | -1.08 ± 0.21 | 1.61 ± 0.053 | -0.994 ± 0.18 | 1.76 ± 0.1 |
| GACACU | -0.276 ± 0.038 | 1.705 ± 0.016 | -0.141 ± 0.073 | 1.83 ± 0.12 |
| GAGCCU | -0.783 ± 0.038 | 1.79 ± 0.072 | -0.638 ± 0.064 | 1.89 ± 0.12 |
| CAGUAU | -0.4929 ± 0.0046 | 1.4 ± 0.1 | -0.197 ± 0.0062 | 1.58 ± 0.17 |
| CAGUAA | -0.526 ± 0.094 | 1.14 ± 0.14 | -0.22 ± 0.0072 | 1.33 ± 0.073 |
| CACUUG | -0.104 ± 0.083 | 1.74 ± 0.026 | 0.131 ± 0.0033 | 1.87 ± 0.12 |
| CACUUA | -0.231 ± 0.015 | 1.43 ± 0.04 | -0.0377 ± 0.081 | 1.59 ± 0.11 |
| CAGAUA | -0.713 ± 0.024 | 1.23 ± 0.053 | -0.483 ± 0.0048 | 1.43 ± 0.065 |
| UAUAGA | -0.453 ± 0.17 | 1.65 ± 0.021 | -0.265 ± 0.034 | 1.81 ± 0.15 |
| UAUAGU | -0.943 ± 0.17 | 1.65 ± 0.03 | -0.713 ± 0.099 | 1.79 ± 0.068 |
| UAUAGC | -0.313 ± 0.039 | 1.73 ± 0.044 | -0.0839 ± 0.078 | 1.83 ± 0.19 |
| GAGCUG | 0.303 ± 0.085 | 1.82 ± 0.078 | 0.439 ± 0.013 | 1.89 ± 0.1 |
| UACGAA | -0.516 ± 0.06 | 1.61 ± 0.03 | -0.204 ± 0.067 | 1.76 ± 0.1 |
| GACAUA | -0.45 ± 0.0083 | 1.52 ± 0.04 | -0.156 ± 0.096 | 1.68 ± 0.064 |
| CACACU | -0.437 ± 0.0083 | 1.52 ± 0.12 | -0.0902 ± 0.05 | 1.7 ± 0.067 |
| UAGUAU | -0.121 ± 0.12 | 1.61 ± 0.028 | 0.192 ± 0.1 | 1.78 ± 0.064 |
| UAGUUU | -0.234 ± 0.073 | 1.675 ± 0.0087 | 0.0254 ± 0.084 | 1.85 ± 0.081 |
| UAGUUG | 0.116 ± 0.21 | 1.7 ± 0.05 | 0.29 ± 0.039 | 1.81 ± 0.082 |
| UAUCAC | 0.171 ± 0.13 | 1.75 ± 0.0055 | 0.375 ± 0.051 | 1.87 ± 0.11 |
| AACCCU | 0.095 ± 0.16 | 1.69 ± 0.032 | 0.195 ± 0.28 | 1.84 ± 0.082 |
| AACCCC | -0.0752 ± 0.016 | 1.78 ± 0.046 | 0.263 ± 0.041 | 1.89 ± 0.14 |
| AAUAGU | -0.33379 ± 0.00027 | 1.6 ± 0.034 | 0.0812 ± 0.061 | 1.74 ± 0.11 |
